Assay results reported in paper PMC8188212, “Multi‐Arm PEG/Peptidomimetic Conjugate Inhibitors of DR6/APP Interaction Block Hematogenous Tumor Cell Extravasation” (Advanced Science, 2021).
Entries after “also recorded” stand apart in the source; their conditions may differ. Square brackets hold non-standard residues; d marks the D form. Side chains are listed from the residue outwards. Ends that are not written are not given here. maleimide = maleimide: 4-arm PEG5k maleimide reacting with the C-terminal Cys thiol

What was measured:
[1] = test system: 4T1 orthotopic tumor model; test: Spontaneous lung metastasis of 4T1 orthotopic breast tumor model; assay type: in vivo, Balb/c female mice; settings: intravenous, 0.2 µg g^–1 AHP-DRI-12, every 2 days, 14 times; sacrificed day 30
Procedure: The spontaneous lung metastasis of orthotopic breast tumor model was established via injection of 4T1 cells into the fourth inguinal mammary gland of Balb/c female mice. The mice were intravenously injected with saline, AHP‐DRI‐12, and PEG‐tAHP‐DRI (0.2 µg g^–1 AHP‐DRI‐12), respectively, every 2 days for total of 14 times. Mice were sacrificed on day 30 and their lungs were collected for observation and histological analysis.

[2] = Pharmacokinetic study after intravenous injection; assay type: in vivo; settings: SD rats, FITC-labeled
Procedure: To investigate the pharmacokinetic profile of AHP‐DRI‐12 and PEG‐tAHP‐DRI, SD rats were intravenously injected with FITC‐labeled AHP‐DRI‐12 and PEG‐tAHP‐DRI and blood samples were collected at 0.5, 1, 2, 4, 6, 24, 30, 48, 54, and 72 h. The DR6‐targeting peptide level of blood samples was measured by a microplate reader.

HUVECs = test: Co-culture of TCs and HUVECs, TC-induced HUVECs necroptosis; assay type: cell-based, human; settings: co-culture with GFP-B16F10, GFP-SGC-996, GFP-LLC1 for 24 h; peptides 1 × 10^–6 M; Hoechst 33342/EthD-III staining; n = 3
Procedure: For co‐culture experiment, HUVECs (1 × 10^5) were cultured for 24 h in six‐well plates and 5 × 10^4 GFP‐expressing TCs (GFP‐B16F10, GFP‐SGC‐996, and GFP‐LLC1) were added alone or in the presence of the indicated substances onto the HUVECs monolayer and cultured for 24 h: peptides (1 × 10^–6 M), Nec‐1 (30 × 10^–6 M), and zVAD (100 × 10^–6 M). Then, cells were stained with Hoechst 33342 and EthD‐III, and observed by fluorescence microscope. Cell number was determined by counting Hoechst‐33342‐positive cells, and cell death was determined by counting EthD‐III‐positive nuclei.^[ ^9 ^]

DR6 protein = target: T1, DR6 protein (Homo sapiens, UniProt O75509); test: KD of DR6-targeting peptides for binding to DR6 protein by MST
T1 construct: purchased Sino Biology, Inc. (Shanghai, China)
T1 sequence (O75509 42-655): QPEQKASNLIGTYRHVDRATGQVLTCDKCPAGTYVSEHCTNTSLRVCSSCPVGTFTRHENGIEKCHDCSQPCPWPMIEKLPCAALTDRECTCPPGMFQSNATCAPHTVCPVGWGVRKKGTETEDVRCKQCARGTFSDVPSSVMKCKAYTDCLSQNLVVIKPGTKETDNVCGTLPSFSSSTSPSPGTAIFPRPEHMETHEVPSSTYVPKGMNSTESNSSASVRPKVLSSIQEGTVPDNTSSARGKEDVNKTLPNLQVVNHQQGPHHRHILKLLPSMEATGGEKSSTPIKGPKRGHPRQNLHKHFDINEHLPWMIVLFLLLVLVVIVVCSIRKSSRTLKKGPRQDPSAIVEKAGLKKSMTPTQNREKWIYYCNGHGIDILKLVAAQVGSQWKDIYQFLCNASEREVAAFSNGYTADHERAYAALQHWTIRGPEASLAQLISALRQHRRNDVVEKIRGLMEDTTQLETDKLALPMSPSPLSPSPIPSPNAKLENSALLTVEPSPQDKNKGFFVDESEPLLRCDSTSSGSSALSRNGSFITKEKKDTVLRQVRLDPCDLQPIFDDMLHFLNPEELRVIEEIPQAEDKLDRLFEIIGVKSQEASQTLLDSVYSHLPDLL
Procedure: For labeling DR6 protein with Red‐tris‐NTA second‐generation dye, equal volume of DR6 protein (200 × 10^–9 M) and dye (100 × 10^–9 M) were mixed. The solution was incubated for 30 min at room temperature and centrifuged for 10 min at 4 ℃ and 15 000 × g. The DR6 protein was labeled and ready for the binding assay. Prepare 25 µL of the DR6‐targeting peptides at 20 × 10^–6 M and add 10 µL of the PBS‐T into the PCR tubes 2–12. Transfer 20 µL DR6‐targeting peptides into the PCR tube 1 and then transfer 10 µL of the DR6‐targeting peptides from tube 1 to tube 2 with a pipette and mix by pipetting up and down multiple times. Transfer 10 µL to tube 3 and mix. Repeat the procedure for tube 4–12. Add 10 µL of labeled protein to each tube (1–12) and mix by pipetting. The final DR6 protein concentration was 50× 10^−9 M. Load the capillaries and measure the samples by NanoTemper Monolith NT.015.^[ ^51 , ^52 ^]

[3] = test system: B16F10, 4T1, and CT26 lung metastasis models; test: In vivo anti-metastasis assay, lung metastasis models; parameters: species or system mice
Procedure: 2 × 10^5 GFP‐B16F10 cells, 2 × 10^5 4T1, or 2 × 10^5 CT26 in 100 µL PBS were injected to the lateral tail vein of mice, respectively. The mice were intravenously injected with saline, AHP‐DRI‐12, and PEG‐tAHP‐DRI (0.2 µg g^–1 AHP‐DRI‐12) shortly before and 24 h after injection of B16F10. Each formulation was administered every 2 days for a total of seven times. After 15 days, mice were sacrificed and perfused with PBS and 4% paraformaldehyde. The hearts, livers, spleens, lungs, and kidneys were collected for H&E staining and immunohistochemistry analysis. Lung metastases were analyzed by quantitation of GFP and metastases nodes.

[4] = DLS analysis of size in solution; assay type: physicochemical
Procedure: AHP‐DRI‐12 with additional Cys residue at the C‐terminal and 4‐arm PEG5k maleimide was dissolved in PBS (0.1 M, pH = 8) at a molar ratio of 8:1. The reaction mixture was stirred for 4 h at room temperature and then dialyzed in a Slide‐A‐Lyzer dialysis cassette (Thermo Fisher Scientific, Shanghai, China) (MWCO: 3500 Da) against water. The dialysate containing the pure product was lyophilized. The products were confirmed by nuclear magnetic resonance (^1H NMR) spectra using a Bruker Avance 500 (500 MHz) spectrometer (Beijing, China).

[5] = Biodistribution, ex vivo fluorescence imaging of organs; assay type: in vivo; settings: Cy7-labeled peptides, intravenous, mice
Procedure: To quantify the biodistribution, mice were intravenously injected with Cy7‐labeled peptides. Mice were sacrificed at 6, 12, and 24 h after injection. All organs were harvested and subjected to ex vivo fluorescence imaging.

[6] = B16F10 tumor-bearing mice, 15 days

Q: With “PEG-tAHP-DRI: tetra-(D-retro-inverso isomer of AHP-12) substitued 4-arm PEG5k ([dP][dT][dT][dA][dD][dI][dT]C([maleimide-4‑arm PEG5k]); also: four peptides on one 4-arm PEG5k)” as the substance, how does the “spontaneous metastasis to lungs” value [1] read?
A: efficiently restrain spontaneous metastasis to lungs

Q: And the “half-life (T1/2)” value ([2]; blood samples 0.5-72 h, microplate reader, n = 3)?
A: 11.1 h

Q: What about the “area under the curve (AUC0-72)” value ([2]; compared with AHP-DRI-12) of the same substance?
A: significantly larger

Q: And the “inhibition of TCs-induced HUVECs necroptosis” value (HUVECs)?
A: strongest potent inhibitory effect on HUVECs necroptosis; also recorded: much less amount of necroptotic HUVECs

Q: And the Kd (DR6 protein; RED-tris-NTA labeled DR6 protein, final 50 × 10^−9 M, PBS-T, main text and Figure 2B-D, read-out: KD)?
A: ~50 nM

Q: And the “binding affinity to DR6 relative to AHP-DRI-12” value (DR6 protein; from KD values)?
A: almost fourfold greater binding affinity

Q: What about the “necroptosis in lungs, p-RIPK1 immunohistochemical analysis” value [3, 6] of the same substance?
A: dramatic decrease of necroptosis in lungs

Q: And the “pulmonary vessel integrity, CD31 staining” value [3, 6]?
A: remained relatively intact and orderly

Q: What about the “expression level of GFP mRNA in lungs” value ([3]; GFP-B16F10 model, compared with vehicle-treated and AHP-DRI-12-treated mice, n = 6) of the same substance?
A: less expression level of GFP mRNA in lungs

Q: And the pulmonary metastasis nodules ([3]; intravenous, 0.2 µg g^–1 AHP-DRI-12, every 2 days, seven times, lungs after 15 days)?
A: least amount of pulmonary metastasis nodules

Q: What about the “metastatic loci in lungs, H&E staining” value ([3]; intravenous, 0.2 µg g^–1 AHP-DRI-12, 15 days, n = 6) of the same substance?
A: less and smaller metastatic loci

Q: What about the “size distribution in solution (hydration dynamic radius, DLS)” value [4] of the same substance?
A: ≈ 10 nm

Q: And the “distribution in kidney and liver after 12 h” value [5]?
A: much higher distribution in kidney and liver

Q: What about the “distribution intensity within 6 h, compared with AHP-DRI-12” value [5] of the same substance?
A: much lower distribution intensity

Q: And the “organ accumulation within 6 h after injection” value [5]?
A: accumulate mostly in kidney and slightly in liver
